Tests used:
3T3-L1 adipocytes = test: myc-GLUT4-GFP translocation to the cell surface; type: cell-based, mouse; details: insulin 100 nM, 30 min
Method: FIG. 2, panels A-C show knockdown of CDP138 in 3T3-L1 adipocytes inhibits insulin-stimulated glucose transport (A) and myc-GLUT4-GFP translocation (B), but not endogenous GLUT4 movement to the periphery detected in TIRF zone (C). (A): Differentiated adipocytes at day 5 were transfected with siRNAs against mouse 5730419I09Rik or the scrambled siRNA (Scr) as described earlier (Jiang et al., 2003) for 60 hrs, then serum starved overnight. Cells were then treated with or without insulin (1 nM and 100 nM) for 30 min for the glucose uptake assay, or 15 min for immunoblotting of CDP138, pAkt, Akt and β-actin. Glucose transport data are presented as mean±SD of 4 independent experiments. *P<0.05 vs Scr Insulin (1 nM) group; **P<0.01 vs Scr Insulin (100 nM) group. (B): Day 5 adipocytes were transfected with siRNAs and myc-GLUT4-GFP for 60 hrs and then serum starved overnight. Cells were then treated with insulin (1 nM) for 20 min. Cell surface Myc-GLUT4-GFP was detected with anti-myc monoclonal Ab (9E10) and Alexa Fluor 568-labeled goat anti-mouse IgG in non-permeablized cells. The Myc signal and GFP signal were quantified as previously described (Jiang et al., 2002). Data presented are representative microscopic images and mean±SD of about 160 GFP-positive cells in each group from three independent experiments. **P<0.01 vs Scr Insulin (1 nM) group. […] GLUT4 was detected with a goat anti-GLUT4 Ab and Alexa Fluor 488-conjugated donkey anti-goat Ab in permeabilized cells. Top and middle panels show 100 nm TIRF zone and representative GLUT4 TIRFM images, respectively. Data are mean±SD of 3 independent experiments. **P<0.01 vs Scr Insulin groups.
GLUT4 translocation detection with wide field fluorescence and TIRF microscopy: Both wide field and TIRF microscopy were used to detect myc-GLUT4-GFP translocation to the cell surface as previously described (Jiang et al., 2002) and herein.
To test the effect of RNAi-induced gene specific knockdown of CDP138 or overexpression of CDP138 mutants on GLUT4 translocation, siRNAs or CDP138 constructs were transfected into adipocytes together with myc-GLUT4-GFP by electroporation as previously described (Jiang et al, 2003). […] Cells were washed with cold PBS, fixed with 4% formaldehyde and immunostained. Briefly, for siRNA study, the cell surface Myc-GLUT4-GFP was visualized with mouse anti-Myc Ab (9E10) and AlexaFluoro568-labeled goat anti-mouse secondary Ab (Invitrogen) in PBS containing 1% FBS. After washing, the coverslip were mounted with Prolong antifade reagent (Invitrogen, Eugene Oreg.). Fluorescence microscopy was carried as described below. Then, images were acquired with wide field microscopy as described below. For the study with overexpressed HAtagged CDP138 constructs, the cell surface Myc-GLUT4-GFP was visualized with rabbit anti-Myc Ab (Cell signaling, Inc) and AlexaFluoro568-labeled goat anti-rabbit secondary Ab (InVitrogen) in PBS containing 1% FBS. Cells were further permeabilized with PSB containing 0.5% Tween-20, and HA-tagged protein was detected with a mouse anti-HA epitope primary Ab followed by AlexaFluoro-350-labelled goat anti-mouse IgG. Insulin-induced myc-GLUT4 accumulation (AlexaFluoro-568 signal) within the evanescence excitation field (100 nm from dorsal membrane) in transfected adipocytes was measured with a Nikon Eclipse-Ti microscope equipped with a CoolSNAP HQ2 camera and laser scanning TIRF capacity. Total GLUT4-GFP signals and […] Alexa Fluoro-350 signals were acquired with wide field imaging to identify double-transfected cells. The ratio of myc-GLUT4 signal in the TIRF zone to the total Epi-GFP signal in wide field was used as a measure of GLUT4 translocation to the cell surface.
Image Analysis and Quantification: TIRF and wide field fluorescence microscopy were performed using a Nikon inverted microscope (Melville, N.Y.) with a cooled charge-coupled device camera. […]

CHO-T cells = test: Cell division of CHO-T cells overexpressing HA-CDP138; type: cell-based
Source text: Large cells bodies with multiple nuclei were formed in HA-tagged CDP138 positive CHO-T cells.
HA-CDP138 positive cell is 3-5 times bigger than HA-negative cells (FIG. 14).

PC12 cells [1] = test: NGF-induced neurite outgrowth in PC12 cells; type: cell-based
Method: FIG. 13, panels A and B, show the expression pattern of CDP138 in various tissues and the effects of overexpressed wild-type and mutant CDP138 in neuronal growth factor (NGF)-induced neurite outgrowth in PC12 cells. A: CDP138 is highly expressed in the brain and distributed in the neurite and synapse of neuronal cells. 30 μg of total protein was assayed for all tissues, except only 15 μg of total protein from brain tissue was assayed in the immunoblotting of panel A. Exemplary protein distribution of CDP138-mCherry in a PC12 cell is also shown. B: Overexpressed CDP138-WT enhances neurite growth, whereas the CDP138-5DA mutant had the opposite effect.
(§1) In addition to counting the total number of cells that survived, the number of big surviving differentiated neuronal cells were also assessed following 24 hours of starvation. […] This was a 50% increase in the number of big differentiated cells.

PC12 cells [2] = test: Survival of differentiated PC12 neuronal cells under serum starvation; type: cell-based; details: for cell death / survival after 24 hours of starvation / cell death within 14 hours of starvation: transfected 24 h, NGF 24 h, serum starved
Method: Cells were serum starved for 6 hours (6 H), 14 hours (14 H) or 24 hours (24 H) before counting the number of cells in two wells.
Cells were serum starved for 24 hours before counting the number of bid surviving differentiated neuronal cells in two wells.
In order to determine the affects of CDP138 of neuronal cell survival, PC12 cells were transfected with wild-type CDP138-WT vector, dominant negative mutant CDP138-5DA vector or an empty vector for 24 h followed by adding NGF (neuron growth factor) for 24 h. Then cells were serum starved for 6 hours, 14 hour, and 24 hour before counting cell number in 2 wells.
as §1

Molecule | effect of overexpression on insulin-stimulated myc-GLUT4-GFP translocation (TIRF myc / Epi GFP) (3T3-L1 adipocytes) | size of positive cells relative to HA-negative cells (CHO-T cells) | positive cells with big multiple nuclei (CHO-T cells; three different experiments) | increase in cell body length (fold over cell body length, NGF-induced neurite outgrowth) (PC12 cells [1]) | increase in the number of big differentiated cells over empty vector (PC12 cells [2]; 24 hours of starvation) [%] | number of big differentiated neuronal cells per well (PC12 cells [2]; 24 hours of starvation) | cell death / survival after 24 hours of starvation (PC12 cells [2]) | cell death within 14 hours of starvation (PC12 cells [2])
HA-CDP138-WT: full-length human KIAA0528 (CDP138) tagged with 3HA epitope at the N-terminus, pCMV5 vector (protein) MPGKLKVKIVAGRHLPVMDRASDLTDAFVEVKFGNTTFKTDVYLKSLNPQWNSEWFKFEVDDEDLQDEPLQITVLDHDTYSANDAIGKVYIDIDPLLYSEAATVISGWFPIYDTIHGIRGEINVVVKVDLFNDLNRFRQSSCGVKFFCTTSIPKCYRAVIIHGFVEELVVNEDPEYQWIDRIRTPRASNEARQRLISLMSGELQRKIGLKVLEMRGNAVVGYLQCFDLEGESGLVVRAIGTACTLDKLSSPAAFLPACNSPSKEMKEIPFNEDPNPNTHSSGPSTPLKNQTYSFSPSKSYSRQSSSSDTDLSLTPKTGMGSGSAGKEGGPFKALLRQQTQSALEQREFPFFTLTAFPPGFLVHVGGVVSARSVKLLDRIHNPDEPETRDAWWAEIRQEIKSHAKALGCHAVVGYSESTSICEEVCILSASGTAAVLNPRFLQDGTVEGCLEQRLEENLPTRCGFCHIPYDELNMPFPAHLTYCYNCRKQKVPDVLFTTIDLPTDATVIGKGCLIQARLCRLKKKAQAEANATAISNLLPFMEYEVHTQLMNKLKLKGMNALFGLRIQITVGENMLMGLASATGVYLAALPTPGGIQIAGKTPNDGSYEQHISHMQKKINDTIAKNKELYEINPPEISEEIIGSPIPEPRQRSRLLRSQSESSDEVTELDLSHGKKDAFVLEIDDTDAMEDVHSLLTDVPPPSGFYSCNTEIMPGINNWTSEIQMFTSVRVIRLSSLNLTNQALNKNFNDLCENLLKSLYFKLRSMIPCCLCHVNFTVSLPEDELIQVTVTAVAITFDKNQALQTTKTPVEKSLQRASTDNEELLQFPLELCSDSLPSHPFPPAKAMTVEKASPVGDGNFRNRSAPPCANSTVGVVKMTPLSFIPGAKITKYLGIINMFFIRETTSLREEGGVSGFLHAFIAEVFAMVRAHVAALGGNAVVSYIMKQCVFMENPNKNQAQCLINVSGDAVVFVRESDLEVVSSQQPTTNCQSSCTEGEVTT | did not significantly alter | 3-5 times | about 24.6% | – | – | – | – | –
CDP138-WT: wild-type CDP138 vector transfected into PC12 cells (protein, UniProt Q86YS7 1-1000, looked up) C2 domain-containing protein 5: MPGKLKVKIVAGRHLPVMDRASDLTDAFVEVKFGNTTFKTDVYLKSLNPQWNSEWFKFEVDDEDLQDEPLQITVLDHDTYSANDAIGKVYIDIDPLLYSEAATVISGWFPIYDTIHGIRGEINVVVKVDLFNDLNRFRQSSCGVKFFCTTSIPKCYRAVIIHGFVEELVVNEDPEYQWIDRIRTPRASNEARQRLISLMSGELQRKIGLKVLEMRGNAVVGYLQCFDLEGESGLVVRAIGTACTLDKLSSPAAFLPACNSPSKEMKEIPFNEDPNPNTHSSGPSTPLKNQTYSFSPSKSYSRQSSSSDTDLSLTPKTGMGSGSAGKEGGPFKALLRQQTQSALEQREFPFFTLTAFPPGFLVHVGGVVSARSVKLLDRIHNPDEPETRDAWWAEIRQEIKSHAKALGCHAVVGYSESTSICEEVCILSASGTAAVLNPRFLQDGTVEGCLEQRLEENLPTRCGFCHIPYDELNMPFPAHLTYCYNCRKQKVPDVLFTTIDLPTDATVIGKGCLIQARLCRLKKKAQAEANATAISNLLPFMEYEVHTQLMNKLKLKGMNALFGLRIQITVGENMLMGLASATGVYLAALPTPGGIQIAGKTPNDGSYEQHISHMQKKINDTIAKNKELYEINPPEISEEIIGSPIPEPRQRSRLLRSQSESSDEVTELDLSHGKKDAFVLEIDDTDAMEDVHSLLTDVPPPSGFYSCNTEIMPGINNWTSEIQMFTSVRVIRLSSLNLTNQALNKNFNDLCENLLKSLYFKLRSMIPCCLCHVNFTVSLPEDELIQVTVTAVAITFDKNQALQTTKTPVEKSLQRASTDNEELLQFPLELCSDSLPSHPFPPAKAMTVEKASPVGDGNFRNRSAPPCANSTVGVVKMTPLSFIPGAKITKYLGIINMFFIRETTSLREEGGVSGFLHAFIAEVFAMVRAHVAALGGNAVVSYIMKQCVFMENPNKNQAQCLINVSGDAVVFVRESDLEVVSSQQPTTNCQSSCTEGEVTT | – | – | – | ~4 fold | 50 | approximately 1650 per well | continued to survive | no appreciable cell death
CDP138-5DA: dominant negative mutant CDP138-5DA vector transfected into PC12 cells (protein, UniProt Q86YS7 1-1000, looked up, variant D19A D26A D76A D78A D84A) C2 domain-containing protein 5: MPGKLKVKIVAGRHLPVMARASDLTAAFVEVKFGNTTFKTDVYLKSLNPQWNSEWFKFEVDDEDLQDEPLQITVLAHATYSANAAIGKVYIDIDPLLYSEAATVISGWFPIYDTIHGIRGEINVVVKVDLFNDLNRFRQSSCGVKFFCTTSIPKCYRAVIIHGFVEELVVNEDPEYQWIDRIRTPRASNEARQRLISLMSGELQRKIGLKVLEMRGNAVVGYLQCFDLEGESGLVVRAIGTACTLDKLSSPAAFLPACNSPSKEMKEIPFNEDPNPNTHSSGPSTPLKNQTYSFSPSKSYSRQSSSSDTDLSLTPKTGMGSGSAGKEGGPFKALLRQQTQSALEQREFPFFTLTAFPPGFLVHVGGVVSARSVKLLDRIHNPDEPETRDAWWAEIRQEIKSHAKALGCHAVVGYSESTSICEEVCILSASGTAAVLNPRFLQDGTVEGCLEQRLEENLPTRCGFCHIPYDELNMPFPAHLTYCYNCRKQKVPDVLFTTIDLPTDATVIGKGCLIQARLCRLKKKAQAEANATAISNLLPFMEYEVHTQLMNKLKLKGMNALFGLRIQITVGENMLMGLASATGVYLAALPTPGGIQIAGKTPNDGSYEQHISHMQKKINDTIAKNKELYEINPPEISEEIIGSPIPEPRQRSRLLRSQSESSDEVTELDLSHGKKDAFVLEIDDTDAMEDVHSLLTDVPPPSGFYSCNTEIMPGINNWTSEIQMFTSVRVIRLSSLNLTNQALNKNFNDLCENLLKSLYFKLRSMIPCCLCHVNFTVSLPEDELIQVTVTAVAITFDKNQALQTTKTPVEKSLQRASTDNEELLQFPLELCSDSLPSHPFPPAKAMTVEKASPVGDGNFRNRSAPPCANSTVGVVKMTPLSFIPGAKITKYLGIINMFFIRETTSLREEGGVSGFLHAFIAEVFAMVRAHVAALGGNAVVSYIMKQCVFMENPNKNQAQCLINVSGDAVVFVRESDLEVVSSQQPTTNCQSSCTEGEVTT | – | – | – | approximately 1 fold | – | did not form any | the highest amount of cell death | significant cell death
